Literature values, collected in PMC11678748.

Biological target: KCCYSL peptide (synthetic construct)

Kd: 295 nM
Substance: HER2 (from UniProt P04626)
